According to PMC8058328 (Developmental cell, 2021):

Target: T1, GST-SH3BP4-HIS8x (human, UniProt Q9P0V3 1-963)
T1 sequence (looked up): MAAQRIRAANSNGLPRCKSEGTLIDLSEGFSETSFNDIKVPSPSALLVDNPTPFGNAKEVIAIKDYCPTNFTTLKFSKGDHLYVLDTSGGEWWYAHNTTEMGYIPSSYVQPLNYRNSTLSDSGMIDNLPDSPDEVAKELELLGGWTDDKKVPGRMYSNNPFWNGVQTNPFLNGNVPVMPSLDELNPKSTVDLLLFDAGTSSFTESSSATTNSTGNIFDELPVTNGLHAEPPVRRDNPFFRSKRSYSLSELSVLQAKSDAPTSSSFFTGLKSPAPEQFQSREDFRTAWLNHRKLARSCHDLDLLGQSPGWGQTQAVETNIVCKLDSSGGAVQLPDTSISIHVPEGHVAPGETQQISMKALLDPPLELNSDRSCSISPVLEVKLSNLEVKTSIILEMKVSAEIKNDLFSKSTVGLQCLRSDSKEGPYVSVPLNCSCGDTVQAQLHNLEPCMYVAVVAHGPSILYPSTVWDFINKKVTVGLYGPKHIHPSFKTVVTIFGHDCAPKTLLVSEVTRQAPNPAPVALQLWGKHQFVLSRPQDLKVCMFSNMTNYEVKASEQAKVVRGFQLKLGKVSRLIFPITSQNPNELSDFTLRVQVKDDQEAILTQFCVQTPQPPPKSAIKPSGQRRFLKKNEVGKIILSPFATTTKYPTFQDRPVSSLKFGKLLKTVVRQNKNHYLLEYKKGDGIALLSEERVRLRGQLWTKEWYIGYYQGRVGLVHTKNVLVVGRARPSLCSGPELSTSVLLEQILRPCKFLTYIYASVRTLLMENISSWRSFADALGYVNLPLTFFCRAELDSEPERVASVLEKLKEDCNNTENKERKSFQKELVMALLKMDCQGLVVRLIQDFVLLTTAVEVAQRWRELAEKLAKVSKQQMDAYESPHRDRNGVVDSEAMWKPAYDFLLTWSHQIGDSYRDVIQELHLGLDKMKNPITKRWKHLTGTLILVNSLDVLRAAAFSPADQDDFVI
Assay: pull-down

binding result: binds
B1: GIPC1-HIS8x (natural protein, human, UniProt O14908 1-333, looked up)
chain: MPLGLGRRKKAPPLVENEEAEPGRGGLGVGEPGPLGGGGSGGPQMGLPPPPPALRPRLVFHTQLAHGSPTGRIEGFTNVKELYGKIAEAFRLPTAEVMFCTLNTHKVDMDKLLGGQIGLEDFIFAHVKGQRKEVEVFKSEDALGLTITDNGAGYAFIKRIKEGSVIDHIHLISVGDMIEAINGQSLLGCRHYEVARLLKELPRGRTFTLKLTEPRKAFDMISQRSAGGRPGSGPQLGTGRGTLRLRSRGPATVEDLPSAFEEKAIEKVDDLLESYMGIRDTELAATMVELGKDKRNPDELAEALDERLGDFAFPDEFVFDVWGAIGDAKVGRY
